The source of these data is US7033773B1, “Screening assays for G protein coupled receptor agonists and antagonists” (The General Hospital Corporation, priority 1997, dated 2006).

The target in one experiment is T1, human PTH/PTHrP receptor (Homo sapiens, UniProt Q03431).
T1 sequence (Q03431 27-593): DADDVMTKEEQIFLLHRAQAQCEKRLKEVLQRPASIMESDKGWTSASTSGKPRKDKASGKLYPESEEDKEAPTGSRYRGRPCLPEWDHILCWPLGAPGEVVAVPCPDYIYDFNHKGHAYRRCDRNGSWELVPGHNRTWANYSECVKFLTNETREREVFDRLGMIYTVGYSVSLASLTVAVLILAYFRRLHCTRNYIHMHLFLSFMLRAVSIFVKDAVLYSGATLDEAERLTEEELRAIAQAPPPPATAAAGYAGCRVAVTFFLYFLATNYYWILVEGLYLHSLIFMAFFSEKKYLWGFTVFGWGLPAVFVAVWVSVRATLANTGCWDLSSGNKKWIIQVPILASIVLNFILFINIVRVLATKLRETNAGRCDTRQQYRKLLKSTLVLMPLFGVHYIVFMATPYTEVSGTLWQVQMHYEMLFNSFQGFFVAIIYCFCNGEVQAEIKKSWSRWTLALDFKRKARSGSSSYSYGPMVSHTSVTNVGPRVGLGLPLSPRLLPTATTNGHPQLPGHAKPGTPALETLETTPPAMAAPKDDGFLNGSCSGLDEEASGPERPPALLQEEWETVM
As to the kind of experiment: Urokinase-type plasminogen activator (u-PA) secretion bioassay in LLC-PK1 cells expressing human PTHR. To be noted: for secreted u-PA: peptide 1000 nM, 16 hr, mean±SEM.

In experiment [1] the target is T2, rat PTHR (Rattus norvegicus, UniProt P25961).
T2 construct: expressed in transfected cells; host or cells: LLC-PK1 porcine renal epithelial cells (EW5; also EW29, AR-C38, AR-B44)
T2 sequence (P25961 27-591): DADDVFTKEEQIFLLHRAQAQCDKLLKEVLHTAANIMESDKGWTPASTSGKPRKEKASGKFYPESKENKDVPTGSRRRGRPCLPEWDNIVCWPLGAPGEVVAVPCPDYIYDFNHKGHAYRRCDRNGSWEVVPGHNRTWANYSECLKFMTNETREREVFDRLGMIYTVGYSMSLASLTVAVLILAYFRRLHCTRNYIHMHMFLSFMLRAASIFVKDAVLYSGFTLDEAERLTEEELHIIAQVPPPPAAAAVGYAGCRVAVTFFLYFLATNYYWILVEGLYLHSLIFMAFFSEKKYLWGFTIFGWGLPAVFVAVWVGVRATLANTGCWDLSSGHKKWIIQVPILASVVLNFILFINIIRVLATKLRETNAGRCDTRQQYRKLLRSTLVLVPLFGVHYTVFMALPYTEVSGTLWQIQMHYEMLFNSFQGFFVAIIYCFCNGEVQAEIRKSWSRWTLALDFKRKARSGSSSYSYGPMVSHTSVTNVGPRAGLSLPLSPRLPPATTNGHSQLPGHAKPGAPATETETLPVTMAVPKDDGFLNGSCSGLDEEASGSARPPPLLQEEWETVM
The experiment can be described thus: IP3 production (PLC activation) in LLC-PK1 cells expressing rat PTHR. It is filed as cell-based. As for the experimental part:
Cells were seeded into 24-well plates at a density of 2.5×10^5 cells/well and cultured for a further 2 days before study. The cells were labeled at 37° C. for 16 h before assay with 3 uCi/ml of [^3H]myo-inositol in assay medium (serum- and inositol-free DMEM (GIBCO-BRL, Grand Island, N.Y.) supplemented with 0.1% BSA). After washing the cells with prewarmed assay medium containing 30 mM LiCl, they were incubated with 0.25 ml of assay medium containing 30 mM LiCl and stimulators (or vehicle) at 37° C. for various intervals(1-30 min). IP3 formation was arrested by aspiration and immediate addition of 0.5 ml of ice-cold 5% TCA. The acid extracts then were extracted twice with two volumes of water-saturated ether and adjusted to pH 7.4 with concentrated NaOH and Tris base (final concentration=10 mM) prior to chromatography on AG 1×8 anion-exchange columns (Bio-Rad, Richmond, Calif.), as previously described (Guo, J., et al., Endocrinology 136:3884-3891 (1995)). After eluting other fractions (free [^3H]myo-inositol, glycerophosphate inositol, IP1, and IP2), IP3 fractions were collected and their content of radioactivity was determined by liquid scintillation spectrometry (Beckman, model LS 6000IC).
Responses to hPTH(1-34) or hPTH(1-31) (1000 nM) were measured in EW5 cells, which express 320,000 rat PTHRs per cell. Each value is the mean±SEM of a representative experiment performed in triplicate. Similar results were obtained in at least 3 individual experiments. The modest reduction in IP3 formation observed with hPTH(1-31) relative to hPTH(1-34) was confirmed in 3 other LLC-PK1 cell lines that expressed rat PTHRs (i.e. EW29, AR-C38 and AR-B44, which express 190,000, 630,000 and 800,000 PTHRs/cell, respectively), in which maximal IP3 formation after hPTH(1-31) (as % of hPTH(1-34) effect) was 75%, 77% and 64%, respectively.

Experiment [2] has as its target T2, rat PTHR. As to the kind of experiment: Cellular phosphate uptake in LLC-PK1 cells expressing rat PTHR. The format is cell-based. As for the experimental part: Cells were seeded into 24-well plates at a density of 2.5×10^5 cells/well and cultured for a further 2 days before study. Twenty four hours before assay, cells were refed with 0.5 ml of DMEM containing 0.1% BSA. The next day, cells were refed with serum-free medium (DMEM+0.1% BSA) containing drugs or peptides, and the incubations were continued at 37° C. under 5% CO2 in air for another 6 hr. Cells then were washed with prewarmed Buffer B without BSA and Na2HPO4 and then were incubated at 37° C. for 5 min in 0.25 ml of the same buffer containing [^32P]orthophosphate (4 uCi/ml) and 0.1 mM Na2HPO4. Phosphate uptake was arrested by adding 1 ml of ice-cold sodium-free “stop buffer” [10 mM HEPES (pH 7.4), 140 mM choline chloride, and 5 mM sodium arsenate], followed by two further washes with same buffer. The drained cell layer then was solubilized in 0.5 ml of Lysis Buffer, and cell-associated radioactivity was determined by Cerenkov counting, as previously described (Guo, J., et al., Endocrinology 136:3884-3891 (1995)).
Responses to hPTH(1-34) or hPTH(1-31) (1000 nM) were measured in EW5 cells, which express 320,000 rat PTHRs per cell. Each value is the mean±SEM of a representative experiment performed in triplicate. Similar results were obtained in at least 3 individual experiments. […]

Setting [3] is: EW5 cells, 320,000 rat PTHRs per cell, peptide 1000 nM, mean±SEM.

Protocol for human PTH/PTHrP receptor: Cells were seeded into 96-well plates at a density of 6×10^4 cells/well and used the following day. The cells were washed once with 0.2 ml and then refed with 0.1 ml of prewarmed DMEM containing 0.05% BSA. After adding each stimulator, plates were returned to the incubator at 37° C. for 16 h. Conditioned medium (5 ul) then was transferred from each well to a clean microplate. […] Activity was expressed in Ploug units/well, using purified human urokinase (Calbiochem) as a standard.
Cells were incubated with the indicated peptides (1000 nM) for 16 hr before measurement of secreted u-PA present in the medium, which was expressed as a percentage of the activity measured in vehicle-treated controls. Values shown are means±SEM of triplicate determinations.

Regarding hPTH(1-31), the “u-PA bioassay activity (in words)” value with human PTH/PTHrP receptor (HKRK B7 and HKRK B28 cells) was “fully active”. The “maximal activation of u-PA secretion compared with hPTH(1-34)” value with human PTH/PTHrP receptor (HKRK B7 cells and AB45 cells) was “identical to that of hPTH(1-34)”. Besides, the “secreted u-PA” value with human PTH/PTHrP receptor (HKRK B7 cells) is listed as 101 ± 9 percentage of the activity measured in vehicle-treated controls; in the experiment with human PTH/PTHrP receptor (HKRK B28 cells), 101 ± 6 percentage of the activity measured in vehicle-treated controls. In addition, the “maximal IP3 formation (as % of hPTH(1-34) effect)” value in the experiment with rat PTHR [1] (AR-B44 cells, 800,000 rat PTHRs/cell) is given as 64%; with rat PTHR [1] (AR-C38 cells, 630,000 rat PTHRs/cell), 77%; with rat PTHR [1] (EW29 cells, 190,000 rat PTHRs/cell), 75%. For the same substance, the “maximal IP3 generation relative to that by hPTH(1-34)” value with rat PTHR [1] (EW5 cells (and 3 other rPTHR-expressing cell lines)) is recorded as “approximately 70%”. For the same substance, the “IP3 Formation” value with rat PTHR [1] (setting [3]) is given as 316 ± 35 % of basal. Besides, the “maximal PLC activation as % of the maximal response to hPTH(1-34)” value with rat PTHR [1] (LLC-PK1 cells that expressed rat PTHRs) came out at 60%. In the experiment with rat PTHR [1] (via the rat PTHR), the “reduction of potency for PLC/PKC activation relative to hPTH(1-34)” value is given as 40%. Also, the “stimulation of phosphate uptake (in words)” value in the experiment with rat PTHR [2] (EW5 cells) is on record as “identical”. Moreover, the Phosphate uptake with rat PTHR [2] (setting [3]) is given as 134 ± 3 % of basal.
